Changes are numbered by the printed parent chain.
T1: human OSM (human)
T1 chain: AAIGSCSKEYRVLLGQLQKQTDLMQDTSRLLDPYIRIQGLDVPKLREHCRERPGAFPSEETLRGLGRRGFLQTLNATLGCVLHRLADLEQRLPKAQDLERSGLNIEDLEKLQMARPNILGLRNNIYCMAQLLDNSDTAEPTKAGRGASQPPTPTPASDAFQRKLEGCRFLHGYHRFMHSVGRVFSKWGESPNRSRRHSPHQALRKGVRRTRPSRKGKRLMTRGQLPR

T2: cyno OSM (cynomolgus)
T2 chain: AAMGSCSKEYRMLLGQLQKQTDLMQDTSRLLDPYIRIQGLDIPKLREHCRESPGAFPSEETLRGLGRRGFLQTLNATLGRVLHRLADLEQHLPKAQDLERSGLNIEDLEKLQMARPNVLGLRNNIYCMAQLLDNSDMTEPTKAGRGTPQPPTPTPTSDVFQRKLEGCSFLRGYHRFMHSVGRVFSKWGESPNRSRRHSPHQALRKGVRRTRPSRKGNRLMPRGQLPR

B1: M71 (designed binder)
chain 1: EVQLVQSGAEVKKPGESLKISCKGSGYSFTSYWISWVRQMPGKGLEWMGIIYPGDSYTRYSPSFQGQVTISADKSISTAYLQWSSLKASDTAMYYCARVPVSPAYLDY
chain 2: not shown
B2: M55 (designed binder)
chain 1: B1 chain 1 with V99G, P100S, S102F, P103E, L106F
chain 2: not shown
B3: M54 (designed binder)
chain 1: B1 chain 1 with V99G, P100S, S102F, P103E, L106F
chain 2: not shown
B4: M69 (designed binder)
chain 1: B1 chain 1
chain 2: not shown
B5: M64 (designed binder)
chain 1: B1 chain 1
chain 2: not shown
B6: M42 (designed binder)
chain 1: B1 chain 1 with V99G, P100S, S102F, P103E, L106F
chain 2: not shown

Biological target: T1, human OSM
Experiment: SPR

Kd	Binder
0.105 nM	B1
0.054 nM	B2
0.053 nM	B3
0.045 nM	B4
0.095 nM	B5
0.484 nM	B6

Biological target: T2, cyno OSM
Experiment: SPR

Kd	Binder
0.108 nM	B1
0.058 nM	B2
0.057 nM	B3
0.062 nM	B4
0.023 nM	B5
0.516 nM	B6

Source: patent publication US10941197 (dated 2021)
